In patent publication US20140241987A1:

Tests used:
[1] = molecular target: α-synuclein fibrils (human), P37840; test: inhibition ELISA, fibrils against monomers; settings: remark: other sources report otherwise
[2] = molecular target: α-synuclein fibrils (human), P37840; test: SPR, BIAcore X100, fibrils immobilised on CM5, mAb injected; settings: remark: other sources report otherwise

| Fold Affinity to Fibrils [1] [fold] | Kd [2] [nM] | koff [2] [s⁻¹] | kon [2] [M⁻¹ s⁻¹] | Binder |
| --- | --- | --- | --- | --- |
| 16600 | 0.127 | 0.00156 | 1.23e+07 | Syn-F1 (antibody) chain 1: DVQLVESGGDLVQPGGSRKLSCAASGFTFSSFGMHWVRQAPEKGLEWVAYINSGSSTIYYADTVKGRFTISRDNPKNTLFLQMTSLRSEDTAMYYCARGNNPGTGYYYSMDYWGQGTSVTVSS chain 2: not shown |
| 3140 | 2.69 | 0.00338 | 1.26e+06 | Syn-F2 (antibody) chain 1: DVQLVESGGGLVQPGGSRKLSCAASGFTFSSFGMHWVRQAPEKGLEWVAYISSGSSTIYYADTVKGRFTISRDNPKNTLFLQMTSLRSEDTAMYYCARGNNPGTGYYYAMDYWGQGTSVTVSS chain 2: not shown |
